The values below come from US20210292761, “COMPOSITIONS COMPRISING CIRCULAR POLYRIBONUCLEOTIDES AND USES THEREOF” (FLAGSHIP PIONEERING INNOVATIONS VI, LLC, published 2021).

Data set [1] concerns NF-kB (endogenous, A549 cells) (Homo sapiens). The data set is described as follows: cell_activity. Conditions: A549, day 2 (89% day 1); 1 pmol transfected; indirect evidence of binding.
Data set [2] has as its target T1, NF-kB p50 subunit (NFKB1) (UniProt P19838 P19838:1-433). The data set is described as follows: EMSA; 1 pmol RNA, 0-10 pmol p50; 20 mM Tris-HCl pH 8.0, 50 mM NaCl, 1 mM MgCl2, RT 20 min; affinity similar to linear. To be noted: tags: Cayman Chemical 10009818; chain copies: 2; circular (ligated with RNA ligase 1), aptamer hairpin with poly(A) flanks; printed with T, is RNA. The procedure:
(§1) Electrophoretic mobility shift assay (EMSA) was performed to assess circular RNA binding affinity to NF-kB. One pmole of linear or circular RNA was incubated with recombinant NF-kB p50 subunit (Caymen Chemical, 10009818) at varying concentrations over the RNA concentration (i.e., 0, 0.1, 1, 10 pmoles of protein) for 20 minutes at room temperature in a buffered reaction (20 mM Tris-HCl, pH 8.0, 50 mM NaCl, 1 mM MgCl2). Samples were run a 6% TBE Urea gel for 25 minutes at 200V. Gels were stained with SybrGold (Thermo Scientific, S11494) and imaged with a blue E-gel imaging system (Thermo Scientific, 4466612).
In general terms: In EMSA bound probe runs differently from free probe, usually more slowly.

Data set [3] concerns the target T1, NF-kB p50 subunit (NFKB1). Kind of data set: EMSA; 1 pmol RNA, 0-10 pmol p50; 20 mM Tris-HCl pH 8.0, 50 mM NaCl, 1 mM MgCl2, RT 20 min; affinity similar to circular. To be noted: tags: Cayman Chemical 10009818; chain copies: 2; linear; printed with T, is RNA. The procedure:
as §1

For data set [4], the target named is T1, NF-kB p50 subunit (NFKB1). The data set is described as follows: EMSA; scrambled control, same buffer. Conditions: tags: Cayman Chemical 10009818; chain copies: 2; hairpin; printed with T, is RNA. As for the experimental part: as §1

T1 sequence (P19838 1-433, one chain of several): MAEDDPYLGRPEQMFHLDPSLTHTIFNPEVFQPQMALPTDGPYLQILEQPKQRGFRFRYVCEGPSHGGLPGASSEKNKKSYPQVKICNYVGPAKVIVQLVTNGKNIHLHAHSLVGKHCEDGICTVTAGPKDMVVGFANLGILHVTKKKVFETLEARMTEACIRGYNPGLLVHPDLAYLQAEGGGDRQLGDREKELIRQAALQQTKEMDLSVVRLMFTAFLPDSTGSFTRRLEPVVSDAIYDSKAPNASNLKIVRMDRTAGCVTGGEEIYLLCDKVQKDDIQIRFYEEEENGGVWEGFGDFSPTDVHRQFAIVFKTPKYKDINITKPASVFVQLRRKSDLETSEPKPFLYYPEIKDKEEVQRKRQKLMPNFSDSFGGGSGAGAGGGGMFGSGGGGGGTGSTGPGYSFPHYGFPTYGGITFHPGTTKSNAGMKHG

Consider “AAAAAAAAAAGAUCUUGAAACUGUUUUAAGGUUGGCCGAUCUUAAAAAA [circular NF-kB aptamer RNA]”, for which, in data set [1], the activity worked out at 86 % viability.
Turning to AAAAAAAAAAGAUCUUGAAACUGUUUUAAGGUUGGCCGAUCUUAAAAAA (ssRNA) [circular NF-kB aptamer RNA], the binding result in data set [2] is “binds”.
For AAAAAAAAAAGAUCUUGAAACUGUUUUAAGGUUGGCCGAUCUUAAAAAA (ssRNA, 5' monophosphate) [linear NF-kB aptamer RNA], the binding result in data set [3] is recorded as “binds”.

B1: scrambled control RNA (ssRNA)
RNA: AAAAAAAUUCUCCGAACGUGUCACGUUUCAAGAGAACGUGACACGUUCGGAGAAAAAAAA
As to B1, the binding result in data set [4] was “no binding”.
